The values below come from the DeepSol protein solubility set.

The series is described as follows: soluble on expression in E. coli; label from the status in PepcDB or PDB records.
For “MGSDKIHHHHHHMTRKNKEQPAMSNNTSSNTNGKPQKRLIIITGDKGGVGKSTFARAIFQLYINKNLPCVAYEADLRNPQIERYFQKDYRPIIRYIDIFHRGGADDLLINLDESDCPITLLDLPAQSGCFFESYVKELAFFEVLKTEINCRVTMVSVISRVLDSINVLEKLRELCKDQVDYIVVKNLFHGEEEKFERYNDSSLRQNMLAEGLIELVMPDLFYKSYDFLDRHALTFNEGQTHQETNIVIKSRIKSWVAEFEAQIKPAFNFLGFDIQPDDCYYPAVVEKSKELRENEEKEKAKNQDANLPSEDIAA”, the “soluble on expression in E. coli” value was “not soluble”.
In the case of “SDMRQHEEYIADMALDPAKKLLLTASGDGCLGVFNIKRRRFELLSEPQSGDLTSVALMKYGKKVACGSSEGTIYLFNWNGFGATSDRFALRAESIDCIVPVTENLLCTSSTDGIIRAVNILPNRVVGTVGQHAGEPVEALALSHCGHFLASSGHDQRLKFWDMTQLRTVVVDDYRRRKKKGGPLRALSSKAWSTDDFFAGLREDEEDAKAPEEVVRESDDDDDDSD” it was “soluble”; in that of “MLDLVNQLELDSQMKQFKLVSQMTRQDVIILDEPGYLPFSQKRGALLFHLMSQLHENTSVIITTNLEFSEWGTLFTEAKMTNALLDRLIHHCHMLETGNESYRFKHRNLEHHHHHH”, “not soluble”.
Under “MCMMSKVVSKMKSFLGFDEFEDEDEVMEEEEVMEEEESFAPVLSSKKNGKVVNIHTANTAKLMITKPLVYDDATEICTALKNRKIVVINTTSLELRTAQRLIDFVGGACYALCGELQEVEKGVFIVSPSNVEVSNELKSELSNKGMFNWASKLEHHHHHH” stands “not soluble”; under “MGSSHHHHHHSSGLVPRGSHMTPKDDEFYQQWQLKYPKLILREASSVSEELHKEVQEAFLTLHKHGCLFRDLVRIQGKDLLTPVSRILIGNPGCTYKYLNTRLFTVPWPVKGSNIKHTEAEIAAACETFLKLNDYLQIETIQALEELAAKEKANEDAVPLCMSADFPRVGMGSSYNGQDEVDIKSRAAYNVTLLNFMDPQKMPYLKEEPYFGMGKMAVSWHHDENLVDRSAVAVYSYSCEGPEEESEDDSHLEGRDPDIWHVGFKISWDIETPGLAIPLHQGDCYFMLDDLNATHQHCVLAGSQPRFSSTHRVAECSTGTLDYILQRCQLALQNVCDDVDNDDVSLKSFEPAVLKQGEEIHNEVEFEWLRQFWFQGNRYRKCTDWWCQPMAQLEALWKKMEGVTNAVLHEVKREGLPVEQRNEILTAILASLTARQNLRREWHARCQSRIARTLPADQKPECRPYWEKDDASMPLPFDLTDIVSELRGQLLEAKP”, “soluble”; under “MDQLEHLSLVSKVLSEVENHFGVVEKDVAEFVIHLAQENPTFDKLKKALDSQGLGDQFDDSLTATILRIVQSMTAVKKKNKKGGDSKEDIKDSHKITLISDAKEEIKARLPALAMANTAKEKEDNEDDLMAQLEKMEGRYESEKRLQKESDSKRNRSRSRSRSRDRKRRRSRSGDRDRRRRSRSREDRRDRDRRDRDRDRDRGRGDRRGDDRQRDRRDRRDDGGARKSEVAEIGKIYDGRVNSIQSFGAFITLEGFRQKQEGLVHISQIRNERVQTVADVLKRGENVKVKVNKIENGKISLSMKEVDQNSGEDLNPRETDLNPDAIGVRPRTPPASTSSWMNPEASGVGQGPSTSIGGGKARVRISTPERWELRQMQGAGVLTATDMPDFDEEMGVLRNYDDESDGEDIEIELVEDEPDFLRGYGKGGAEIEPVKVVKNPDGSLAQAALMQGALSKERKETKIQAQRERDMDTQKGFSSNARILDPMSGNQSTAWSADESKDRNNKMKEMPEWLKHVTAGGKATYGRRTNLSMVEQRESLPIFALKKNLMEAMIDNQILVVVGETGSGKTTQMTQYAIEAGLGRRGKIGCTQPRRVAAMSVAKRVAEEYGCKLGTDVGYTIRFEDCTSQDTIIKYMTDGMLLRECLIDPDLSGYSLIMLDEAHERTIHTDVLFGLLKAAARKRPELKLIITSATLDSVKFSEYFLEAPIFTIPGRTFPVEILYTREPESDYLEAAHITVMQIHLTEPPGDVLVFLTGQEEIDTSCEVLYERMKSMGPDVPELIILPVYGALPSEMQTRIFDPAPAGKRKVVIATNIAETSLTIDGIFYVVDPGFVKQKIYNPKSGMDSLVVTPISQAAAKQRSGRAGRTGPGKCYRLYTERAFRDEMLPTPVPEIQRTNLASTLLQLKAMGINNLIDFDFMDAPPLDSMITALNTLHTLSALDGDGLLTKLGRRMAEFPLEPSLSKLLIMSVDLGCSEEVLTIVAMLNVQNIFYRPKEKQDHADQKKAKFHQPEGDHLTLLAVYNSWKNHHFSQPWCFENFIQVRSMKRAQDIRKQLLGIMDRHKLLMVSCGRDVSRVQKAICSGFFRNAAKRDPQEGYRTLTDGQNVYIHPSSACFQQQPEWVVYHELVMTTKEYMREVTAIDPKWLVEFAPSFFKIGDSTKLSTFKRNQKIDPLFDKYADANAWRITRVKKRIYNPNK”, “soluble”.
Turning to “MSLSTIEDVAKLAGLSRTTVSRVINNHPYVSDEKKKRVQLAMKHLGFVPNSAARRLRKQKTETIAVLVPRITNPFFSRFIEAIEIAASEHKYKLIICQTRYLPEKEMEYLQLLSTKQVDGIILCSLENQWEDVEPYLQHGPIVLCNEYIEEANVPTVKFDHAQGAYIAAKHVLEQGYRNLIFCRGNETKVVSQQRKMGFLRAITEKSRQVEAIDFLENAFSWEDGKRIFHEVLKDKKNPTAILAGGDEVAAGIISEAKRHDWSIPDDLAVIGFDNQILSQITEPGITTIEQPIDEMARKVVDLMMDKIHTKNYRKKELYEFELELLVKGSTMKDTMLLAEGHHHHHH”, the “soluble on expression in E. coli” value is reported as “not soluble”.
As for “MSSASGLRRGHPAGGEENMTETDAFYKREMFDPAEKYKMDHRRRGIALIFNHERFFWHLTLPERRGTCADRDNLTRRFSDLGFEVKCFNDLKAEELLLKIHEVSTVSHADADCFVCVFLSHGEGNHIYAYDAKIEIQTLTGLFKGDKCHSLVGKPKIFIIQACRGNQHDVPVIPLDVVDNQTEKLDTNITEVDAASVYTLPAGADFLMCYSVAEGYYSHRETVNGSWYIQDLCEMLGKYGSSLEFTELLTLVNRKVSQRRVDFCKDPSAIGKKQVPCFASMLTKKLHFFPKSN”, the “soluble on expression in E. coli” value is recorded as “soluble”.
Under “MFSFNMFDHPIPRVFQNRFSTQYRCFSVSMLAGPNDRSDVEKGGKIIMPPSALDQLSRLNITYPMLFKLTNKNSDRMTHCGVLEFVADEGICYLPHWMMQNLLLEEGGLVQVESVNLQVATYSKFQPQSPDFLDITNPKAVLENALRNFACLTTGDVIAINYNEKIYELRVMETKPDKAVSIIECDMNVDFDAPLGYKEPERQVQHEESTEGEADHSGYAGELGFRAFSGSGNRLDGKKKGVEPSPSPIKPGDIKRGIPNYEFKLGKITFIRNSRPLVKKVEEDEAGGRFVAFSGEGQSLRKKGRKP” stands “soluble”; under “MGSDKIHHHHHHMQITKRNVELRVDDSLMRVYVASPKPVGVYPGIVFYSDIYQLGSPIIRLANYLAGFGYVVAAPEIFHRLEPIGLVIEPDDLGRMRGNDNARRTAIAEYDADSRAVIDFLKAETTVNANKIGTVGFCIGGHLAFRAAFENEVKASACCYPTGIPSGKLGKGVADTIHRVKEIKGEMLLVLGTLDPHIPESDRQILIKAIEDAKVPHKVVLYEAEHTFMRDDGYRYDSAATTFAWAEIVEFLGRVFAD”, “not soluble”.
In the case of “MGSDKIHHHHHHMTFGLLHRWLTDMGMTISKNTLRNWLTKDKTYLDELVCVLKSIALEKDSIVNCDETWCKVRKYDHYKKCYIGVLVNKARKTAIFFYENGSCGRDVLTDFLGDAELKSIMSDGYNAYVFIGNELKLGRFKDTVHQVCMSHAKNKFVKASNQGGEPTAERFSEILKEFFMRDREYDDAGLTPKERFQERQSLETKELLIELRSLLDSEQSKDSEFRSRYYKEALNYLNRFRKEIFAYLDDGELPIDNNLAERTIRKLTTQRNNSLHYGSDAGAEMAATYHSVIGTVKLLGSSIWNFIGTFFKNIFNGCRDYVNMVPDKITLATSQC” it was “not soluble”; in that of “MVKGVETKTIVGLEVGTSKVVVVVGEVFPDGVVNVLGVGSCPSKGIDRGSITDLDAVVGSIQRAIEAAESMADCQIMSVTLAITGEHIQSLNESGFVPIAESEVTQEEIDSALHTASSIKLPEGL”, “not soluble”; in that of “MVLGEYYAVAGHIGFGGKADARHMGNDPRRALVHPPFLPDFGQHIFFHRALEPENRWKRMAGRPRTSAARAFCRQ”, “not soluble”.
Under “MSLADTLMSDTPFWQRKTLDEMTDAEWESLCDGCGQCCLHKLMDEDTDEIYFTNVACRQLNIKTCQCRHYERRFEFEPDCIKLTRENLPDFEWLPMTCAYRLLAEGKPLPTWHPLLTGSKAAMHGERISVRHIAVKESEVRDWQDHILNKPSWAEEGHHHHHH” stands “not soluble”; under “MSLSGIFNWSLDVFADIYNTLKFESNIDLDTIDFTSIKNDLANVLITPVPLDQSRSKLGDASKPVALPSGDEVKLNQASIEITGVLSNELDLDELNTAELLYNASDLSYKKGTSIGDSARLAYYLRAHYILNIVGYLVSHKRLDIITNNNQVLFDNILKSFSKIYTLSGKLNDMIDKQKVTGDINNLAFINCINYSRSQLFNAHELLGQVVFGLADNYYESYGTLNNYKSLVEFILKNISDEDVFVIHFLPSTLQLFKKLLQLGEESLVDQFYKTITSSILKDYEANNFSKSEDIDLSKSKLSGFEIVTSFIFLTEFIPWCKQLSSRTAKYDFKDDILKYMEFLISYGVMERLLSYCSETANAKTQQVYDWSNMYDFRALLQKNFPRLTPAKFHYPGNQELLNAVRPGYENVSKLIDISFLTLDPSLNETLVSPFFQSFFSVFISNAAVVMTSLRDSEEDFVLSSLNESDEGHHHHHH”, “soluble”.
Take “RKPLQEPCTIFLIANGDLINPASRLLIPRKTLNQWDHVLQMVTEKITLRSGAVHRLYTLEGKLVESGAELENGQFYVAVGRDKFKKLPYGELLFD”: the “soluble on expression in E. coli” value is given as “soluble”.
In the case of “MQRVTITLDDDLLETLDSLSQRRGYNNRSEAIRDILRSALAQEATQQHGTQGFAVLSYVYEHEKRDLASRIVSTQHHHHDLSVATLHVHINHDDCLEIAVLKGDMGDVQHFADDVIAQRGVRHGHLQCLPKED” it was “soluble”; in that of “MGVMESGRPPAKPRERVFVGGCLHAGMDHDTAGRTSRQILDAVGSAVIADDHFLETVMTGILARGHVLLEDVPGTGKTLTAQSFATALDLSFKRVQFTPDLLPSDITGSNVFNEATGEFDFQPGPVFANVVLADEINRAPPKTQAALLEAMGEKQVTVDGVTHDLPEPFFVIATQNPVEQEGTFGLPEAQRDRFIVKTSMGYPDFGGERELIDRRADRTAQAPSVTSVIDGERLPALQRTVESVTVDGTLRDYVVELGRATREDDRVDVGVSPRGIQRLFEATRAAAVLDGRDYAVPDDVKTVVEEAFAHRLVLTADAGVRGVDPATVVDDVLDRVEVPAVSPLEHHHHHH”, “not soluble”; in that of “ASNSQLNAMAHQIQEMFPQVPYHLVLQDLQLTRSVEITTDNILEGRIQVPF”, “soluble”.
In the case of “MALNVNRAVADPFYRYKMPKLSAKVEGKGNGIKTVISNMSEIAKALERPPMYPTKYFGCELGAQTNFDAKNERYIVNGEHDANKLQDILDGFIKKFVLCKSCENPETQLFVRKNNIKSKCKACGCSFDIDLKHKLSTFIMKNPPKIDVDFSKAEQKNGKKTSGADAAAAVAADIIHNSDKGSSNDDDDDDWEPEPVEPNGMLSAGMGKLVLDKDLEKSEEQRLDMLHTFFLKAKEEDRISDAKGQTALRDEAERLELKQKASLLLANVFLDEKVITDKQISKHRNLLLRFTLNDKKAQRYLLGGVEQVIHKHEAELLSKSAHIIKSLYDEDVCEEDSLISWGEKPSSKYVSKSFAKKIIENSQPVLNWLKEAEEETEEESDDEIAFGGDVKESEFLRQQKEKAAREAQQKSAKATNGNAAAASGANDEEDLDIDDI” it was “soluble”.
